This is an account of results in article PMC7114193.

Usually Kd stands for the constant that tells how readily two partners part at equilibrium.

Conditions in all cases: modification not given
Experiment [1] deals with ACE2 (Homo sapiens), Q9BYF1. The experiment is described as follows: SPR. (In SPR one partner is held on a chip, and binding of the other changes the refractive index at the surface.)
Experiment [2] concerns the target ACE2 (Homo sapiens), Q9BYF1. Description: SPR. This is another data set of the same source.
In experiment [3] the target is ACE2 (Homo sapiens), Q9BYF1. Description: SPR. This is another data set of the same source.
Experiment [4] concerns the target ACE2 (Homo sapiens), Q9BYF1. Description: NMR.
In experiment [5] the target is ACE2 (Homo sapiens), Q9BYF1. Description: SPR. The source holds these as a separate data set.

Sequence of ACE2 (Homo sapiens), Q9BYF1 (Q9BYF1 18-740): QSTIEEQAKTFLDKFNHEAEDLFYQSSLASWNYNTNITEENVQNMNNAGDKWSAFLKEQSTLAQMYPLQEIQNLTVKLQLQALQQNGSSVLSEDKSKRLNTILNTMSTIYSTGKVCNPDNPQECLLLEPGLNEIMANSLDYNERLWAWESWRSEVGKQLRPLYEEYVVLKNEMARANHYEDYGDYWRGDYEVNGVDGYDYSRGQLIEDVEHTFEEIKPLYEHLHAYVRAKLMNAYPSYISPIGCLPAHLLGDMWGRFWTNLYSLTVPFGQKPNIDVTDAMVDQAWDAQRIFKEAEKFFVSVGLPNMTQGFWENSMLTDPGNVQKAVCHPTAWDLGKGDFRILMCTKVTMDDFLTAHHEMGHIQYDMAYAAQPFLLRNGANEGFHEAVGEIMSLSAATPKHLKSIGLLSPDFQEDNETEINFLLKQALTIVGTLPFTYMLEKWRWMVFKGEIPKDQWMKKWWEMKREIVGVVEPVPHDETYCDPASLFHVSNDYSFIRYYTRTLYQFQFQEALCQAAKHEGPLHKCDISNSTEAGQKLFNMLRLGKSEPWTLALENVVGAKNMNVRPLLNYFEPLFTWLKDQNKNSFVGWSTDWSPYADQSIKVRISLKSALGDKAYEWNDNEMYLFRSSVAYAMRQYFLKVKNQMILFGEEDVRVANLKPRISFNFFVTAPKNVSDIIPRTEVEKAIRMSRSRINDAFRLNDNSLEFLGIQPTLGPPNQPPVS

As for YKYRYLRHGKLR [RBD-11 peptide, P59594], the Kd in experiment [1] came to 67 µM; in experiment [2], 85 µM.
For the molecule CYWPLNDYGFYT [RBD-14 peptide, P59594], the Kd in experiment [3] turned out to be 450 µM; in experiment [1] it was 430 µM.
Take YKYRYL [RBD-11b peptide]: the figures for the Kd in experiment [4] and in experiment [1] were 60 µM and 46 µM, respectively.
With TTGIGYQPYRVV [RBD-15 peptide, P59594], the results for the Kd in experiment [5] and in experiment [1] were 672 µM and 450 µM, respectively.
